From the supplement of paper PMC9170038

System: MS2 coat protein
Experiment: apparent KD of MS2 coat protein; designed switch direction (-1 OFF switch, 1 ON switch): -1; higher = weaker reporter binding
Outline: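 Transcription of designed RNA switches on Illumina chips was done by stalled E. coli RNA polymerase. SNAP-549-labelled MS2 coat protein was then titrated in doubling steps from 0.7 or 1.5 nM to 3 µM, with steps of 0.8–1.5 h at the lowest and 10–20 min at the highest concentration. The per-design median over clusters of curve-fitted normalised fluorescence is reported as apparent KD.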

[1] = input ligand: microRNA oligo, concentration not stated
[2] = Eterna round: R95, input ligand: FMN 200 uM
[3] = Eterna round: R95, input ligand: microRNA oligo, concentration not stated
[4] = Eterna round: R95, input ligand: none

AGAUCAAUCACGAAAGUGAUUGAUCAAAUUAGUUUUUAAACAUGAGGAUCACCCAUGUCCUAGUGGGCUAGUCUUAU [Mat - Sensor v2 - var 2 - Mod - D142] (Eterna round: R96, puzzle: Sensor v2, turn-off variant 2)
apparent KD of MS2 coat protein (input ligand: FMN 200 uM): 254 nM
apparent KD of MS2 coat protein [1]: 177 nM
apparent KD of MS2 coat protein (input ligand: none): 249 nM

AGAUCACAUGAGGAUCACCCAUGUGAGGAUAUGCUUAAACCGUUGAACCCGGUUUGAGGCAGAAGGUGCGAGGG [Eternabot (L2) Solution 37] (Eterna round: R97, puzzle: Exclusion 1)
apparent KD of MS2 coat protein (input ligand: FMN 200 uM): 29.9 nM
apparent KD of MS2 coat protein (input ligand: none): 21.3 nM

AGAUCCUGAGUCAGGAUAUAGAGACGGAAGUCGGGCUAGAAGGGACAUGAGGAUCACCCAUGUGGGUUCGUGCC [Lalaarveti] (puzzle: Brourd's mod of Exclusion 4)
apparent KD of MS2 coat protein [2]: 33.5 nM
apparent KD of MS2 coat protein [3]: 16.3 nM
apparent KD of MS2 coat protein [4]: 23 nM

AGAUCCUGAGUCAGGAUAUAGAGGCGGUAGCCUGGCUAGAAGGGACAUGAGGAUCACCCAUGUGGGUUCGAGCC [Isonus] (puzzle: Brourd's mod of Exclusion 4)
apparent KD of MS2 coat protein [3]: 16.7 nM

AGAUCUCAUGACGUUUGCAACAUGAGGAUCACCCAUGUGAGGAGGGUAAACAAACCAAGCUUCGUGCUCGUCUAUAA [Eternabot (Original) Solution 46] (Eterna round: R97, puzzle: Sensor, turn-off variant 1)
apparent KD of MS2 coat protein (input ligand: FMN 200 uM): 38.9 nM
apparent KD of MS2 coat protein (input ligand: none): 52.3 nM

AGAUCUGCAGGAUAUGGUUUUCGUGACAUGAGGAUCACCCAUGUCUUAUGUCCGCAUGUUUCAGAAGGGCAGGACG [Eternabot (L1) Solution 71] (Eterna round: R97, puzzle: Exclusion 5)
apparent KD of MS2 coat protein (input ligand: FMN 200 uM): 74.3 nM
apparent KD of MS2 coat protein (input ligand: none): 27.8 nM

AGAUGCUUAAGUCGACAUGAGGAUCACCCAUGUACAGUUAACGAGGAUAUCCGAAAUAAAUAAUAGGAGAAGGCGUGAUCAUGA [Ex NG3 #1] (Eterna round: R96, puzzle: Exclusion NG 3)
apparent KD of MS2 coat protein (input ligand: FMN 200 uM): 82.4 nM
apparent KD of MS2 coat protein [1]: 145 nM
apparent KD of MS2 coat protein (input ligand: none): 307 nM

AGAUGGCGAGGAUAUACAUGAGGAUCACCCAUGUGAAUAAGAAGAGUGAGGAAGAAAAGUAGAAGGCGCUGUCA [Mat - Exclusion 3 - Mod of Salish D31] (puzzle: Exclusion 3)
apparent KD of MS2 coat protein [2]: 128 nM
apparent KD of MS2 coat protein [3]: 64.6 nM
apparent KD of MS2 coat protein [4]: 99.8 nM

AGAUGGCGAGGAUAUACAUGAGGAUCACCCAUGUGAGAAUAGAAAGUGAGGAAGAAAAGUAGAAGGCGCUGUCA [Mat - Exclusion 3 - Mod of Salish D22] (puzzle: Exclusion 3)
apparent KD of MS2 coat protein [2]: 125 nM
apparent KD of MS2 coat protein [3]: 59.7 nM
apparent KD of MS2 coat protein [4]: 73.4 nM

AGAUGUAGAUACCGAUCCUACAUGAGGAUCACCCAUGUAGCUAGACGUGCGCGCGGCGCUCGUCAGACUACCAGUAG [salish99_TOv1_r3_093] (Eterna round: R96, puzzle: Sensor v3, turn-off variant 1)
apparent KD of MS2 coat protein (input ligand: FMN 200 uM): 499 nM
apparent KD of MS2 coat protein [1]: 250 nM
apparent KD of MS2 coat protein (input ligand: none): 364 nM

AGAUGUAGAUACCGAUCCUACAUGAGGAUCACCCAUGUAGCUAGACGUGCGCGCGGCGCUCGUCAGACUACCAGUAG [salish99_TOv1_r3_093] (puzzle: Sensor v3, turn-off variant 1)
apparent KD of MS2 coat protein [2]: 328 nM
apparent KD of MS2 coat protein [3]: 248 nM
apparent KD of MS2 coat protein [4]: 326 nM

AGAUUACAUGAGGAUAUCGUAUUGGAUAUAGUGCGAGAAGGCAUGACAUGAGGAUCACCCAUGUAGUGUUGGGA [JR_Ex6_Sub010] (Eterna round: R97, puzzle: Exclusion 6)
apparent KD of MS2 coat protein (input ligand: FMN 200 uM): 117 nM
apparent KD of MS2 coat protein (input ligand: none): 187 nM

AGAUUGCGGCAAGGAUAUCUUUGUCAACUUAAAACAUGAGGAUCACCCAUGUGCAUCUUCGUGUGAGAGAAGGUGCGGCGAUCC [Raesredi] (Eterna round: R96, puzzle: Exclusion NG 2)
apparent KD of MS2 coat protein (input ligand: FMN 200 uM): 1430 nM
apparent KD of MS2 coat protein [1]: 368 nM
apparent KD of MS2 coat protein (input ligand: none): 687 nM

AGAUUUGUAGUGAGGAUAUAGGAUGAGUAGUAGUACUAGAAGGCACAUGAGGAUCACCCAUGUAAGUGAAUGAG [Exclusion 4 mod test] (Eterna round: R97, puzzle: Brourd's mod of Exclusion 4)
apparent KD of MS2 coat protein (input ligand: FMN 200 uM): 22.6 nM
apparent KD of MS2 coat protein (input ligand: none): 20.2 nM

AGCAAAUCAGGAUAUGUACUGGACGACAUGAGGAUCACCCAUGUGAUUCAGUGCGCGAGAACAGAAGGGAUUCGCU [Isor] (puzzle: Exclusion 5)
apparent KD of MS2 coat protein [3]: 15.4 nM

AGCAAGCAAUAGGAUAUGCCUGCAAGCUUGCACGCAGAAGGAUUGACUUGAGGAUCACCCAAGUGGGCUCCAAA [Xemaesti] (Eterna round: R97, puzzle: Exclusion 6)
apparent KD of MS2 coat protein (input ligand: FMN 200 uM): 356 nM
apparent KD of MS2 coat protein (input ligand: none): 83.6 nM

AGCAGACGAGGAUAUAGAUUUAAGUACAUGAGGAUCACCCAUGUACAUAUGUAUUUAGAUUUAGAAGGCGUCUGCU [E5/16-A1] (Eterna round: R97, puzzle: Exclusion 5)
apparent KD of MS2 coat protein (input ligand: FMN 200 uM): 27.7 nM
apparent KD of MS2 coat protein (input ligand: none): 28.6 nM

AGCAGACGAGGAUAUAGAUUUGUUGACAUGAGGAUCACCCAUGUGAUCGAUCUAUCAUAUUUAGAAGGUGUCUGCU [JR_Ex5_Sub041] (Eterna round: R97, puzzle: Exclusion 5)
apparent KD of MS2 coat protein (input ligand: FMN 200 uM): 18.6 nM
apparent KD of MS2 coat protein (input ligand: none): 14.3 nM

AGCAUGUAAGGAUAUGCAAGUGGCACGGAUAGUACCAGAAAGCAGAAGGUACAUGAGGAUCACCCAUGUGCUCC [Anenen] (Eterna round: R96, puzzle: Exclusion 4)
apparent KD of MS2 coat protein (input ligand: FMN 200 uM): 233 nM
apparent KD of MS2 coat protein [1]: 67.2 nM
apparent KD of MS2 coat protein (input ligand: none): 80.1 nM

AGCCACAGAGGAUAUACAUACAUCCAGUAGUUAAGAAAACUACAUGAGGAUCACCCAUGUAGAAGGCUGUGGCA [Omei Ex2 BD B5] (Eterna round: R97, puzzle: Exclusion 2)
apparent KD of MS2 coat protein (input ligand: FMN 200 uM): 507 nM
apparent KD of MS2 coat protein (input ligand: none): 101 nM

AGCCACAGAGGAUAUACAUACAUCCAGUAGUUAAGAAUACAACAUGAGGAUCACCCAUGUAGAAGGCUGUGGCA [Omei Ex2 BD B9] (Eterna round: R97, puzzle: Exclusion 2)
apparent KD of MS2 coat protein (input ligand: FMN 200 uM): 348 nM
apparent KD of MS2 coat protein (input ligand: none): 103 nM

AGCCACAGAGGAUAUACAUACAUCCAGUAGUUAAGAAUACUACAUGAGGAUCACCCAUGUAGAAGGCUGUGGCA [Omei Ex2 BD B6] (Eterna round: R97, puzzle: Exclusion 2)
apparent KD of MS2 coat protein (input ligand: FMN 200 uM): 383 nM
apparent KD of MS2 coat protein (input ligand: none): 84.3 nM

AGCCACAGAGGAUAUACAUACAUCCAGUAGUUGAGAAAACUACAUGAGGAUCACCCAUGUAGAAGGCUGUGGCA [Omei Ex2 BD B4] (Eterna round: R97, puzzle: Exclusion 2)
apparent KD of MS2 coat protein (input ligand: FMN 200 uM): 27.4 nM
apparent KD of MS2 coat protein (input ligand: none): 321 nM

AGCCAUCUUGUGAGGAUAUGCCCUGGUCAAAGCCGGUAGAAGGUACAUGAGGAUCACCCAUGUGAACUAAUCUA [Eternabot (L1) Solution 90] (Eterna round: R97, puzzle: Brourd's mod of Exclusion 4)
apparent KD of MS2 coat protein (input ligand: FMN 200 uM): 14.1 nM
apparent KD of MS2 coat protein (input ligand: none): 16.2 nM

AGCCCUGCAGGAUAUGCCCGGGAUAACAUGAGGAUCACCCAUGUGACUGAUUGUUAUUCUGCAGAAGGGCAUGGGA [JL-EX5-4.14 ViennaUCT mod] (Eterna round: R97, puzzle: Exclusion 5)
apparent KD of MS2 coat protein (input ligand: FMN 200 uM): 335 nM
apparent KD of MS2 coat protein (input ligand: none): 494 nM

AGCCUACAUGAGGAUCACCCAUGUCAGGAUAUCUCGCGGCGUGUCAAGUUCACACUGCAGAGAAGGGACUCGGG [Edsoriri] (puzzle: Exclusion 1)
apparent KD of MS2 coat protein [3]: 51.4 nM

AGCCUAGCAGGAUAUGCUCGGGAUUACAUGAGGAUCACCCAUGUGACUGAUUGUUGUCUUGCAGAAGGGCUAGGGA [JL-EX5-4.04 ViennaUCT mod] (Eterna round: R97, puzzle: Exclusion 5)
apparent KD of MS2 coat protein (input ligand: FMN 200 uM): 365 nM
apparent KD of MS2 coat protein (input ligand: none): 49 nM

AGCCUGGGUUCGCCCAGGUACAUGAGGAUCACCCAUGUCAUGGGUACUUGUGUUGGUAGGCAGUGUGCUCGUCUUAU [Cac Sensor turnoff v1 sub10] (Eterna round: R97, puzzle: Sensor, turn-off variant 1)
apparent KD of MS2 coat protein (input ligand: FMN 200 uM): 719 nM
apparent KD of MS2 coat protein (input ligand: none): 1050 nM

AGCGAAUAGGUAGGAUAUGAGAAUAGAUAGAGCUCAGAAGGACCACAUGAGGAUCACCCAUGUAAAGUCUUGAGGCUGCGUGGU [Prohibition 15 - Jieux - Exclusion NG 1] (Eterna round: R96, puzzle: Exclusion NG 1)
apparent KD of MS2 coat protein (input ligand: FMN 200 uM): 51 nM
apparent KD of MS2 coat protein [1]: 14.4 nM
apparent KD of MS2 coat protein (input ligand: none): 17.5 nM

AGCGAGGUAGGAUAUACAUGAGGAUCACCCAUGUGCUUGCAUGGCGUGGAACGUCGAGGUAGAAGGGCCAUGCC [EX3 #73] (Eterna round: R97, puzzle: Exclusion 3)
apparent KD of MS2 coat protein (input ligand: FMN 200 uM): 24.5 nM
apparent KD of MS2 coat protein (input ligand: none): 27.8 nM

AGCGUGUGAGGAUAUCGAUAUUGGAAGUCUAGGUCUGAGCGCGAGAAGGCACAUGAGGAUCACCCAUGUAAGGG [Teceor] (Eterna round: R97, puzzle: Exclusion 4)
apparent KD of MS2 coat protein (input ligand: FMN 200 uM): 516 nM
apparent KD of MS2 coat protein (input ligand: none): 375 nM
